# B1: LINE1-full (parent)
# chain: UACGUAGGUGGUUUUCCCCUGAUAGUGCUAAGGGGGCCUGGAAGUUUGGACUGGGCAGAGCUCAACACAGCGUGGCAAAGUGGCUGUGGCUAGACUGCCUCUCUGGAUUCCUCGUCACUCAGCAGGGCAUCUCUGAGAGAAAUGCC
# Variants of: B1
# Assay: self-cleavage, relative activity (ratio to wild type); higher = more cleavage; in vitro, sequencing; the parent is a self-cleaving ribozyme
row,Variant,self-cleavage
1,A42G C128U,1.28
2,G41U U115A,1.29
3,G41A A129U,1.42
4,A43G C110U,1.8
5,A43G G93U,0.05
6,A42U A117U,1.28
7,A42U A117G,1.21
8,A43U C61U,0.02
9,A43U U102G,0.75
10,A43U U102C,0.25
11,A43C A141U,1.46
12,A42G U62C,0.08
13,A42U U134A,1.09
14,A42U U134C,1.34
15,G41C U134C,1.76
16,A42G U119C,1.35
17,A42G A94G,0.26
18,A42G A94U,0.21
19,A43G G54A,0.41
20,A43G U45G,1.53
21,A42C U108C,0.8
22,A42U C84U,0.09
23,A43U G89A,0.06
24,G44A U62C,0.02

row,Variant,self-cleavage
1,A43U U132C,1.26
2,A42C G97C,0.11
3,A43G A94C,0.14
4,A43G A94U,0.16
5,A43G C63G,0.1
6,G44A C90G,0.01
7,A42G U87A,0.1
8,A42G U87C,0.41
9,A42C A92C,0
10,A43G U134G,0.97
11,A43G U134C,1.09
12,G41U U143C,1.47
13,A42G G54U,1.06
14,A42G G54C,0.84
15,A43G C123U,1.21
16,A43U U104C,1.67
17,A42G U143A,1.85
18,A42G U143C,1.3
19,G41A A121G,1.15
20,G41A A142G,1.18
21,G44C,1.22
22,G44A,1.21
23,A42G U91C,0.68
24,G44A U132C,1.31

row,Variant,self-cleavage
1,A43U G53C,1.03
2,A43C A65U,0.14
3,A43G G125A,1.24
4,A43G G125U,1.02
5,A42G U108A,0.71
6,A42U A59G,0.12
7,A43G U91A,0.89
8,A43U G122A,1.02
9,A42G G74A,0.8
10,G44A U73C,1.68
11,A43G G75U,0.99
12,A43G U119A,1.15
13,A42U G53A,1.72
14,A42U U130C,1.32
15,A42G A141G,1.38
16,G41U A121G,1.53
17,A43U U134A,1.13
18,G44A A64G,0.33
19,G44A A64U,0.4
20,A43G A142G,1.5
21,A43G U73G,1.56
22,G44A G89C,0.04
23,G44A G89U,0.02
24,G41A A124U,1.08

row,Variant,self-cleavage
1,G41A U112C,1.67
2,A43G C128G,0.77
3,A43U U45G,2.34
4,G44A A121G,1.21
5,A42G C113U,1.12
6,A43G G126U,1.28
7,A43U G82A,1.4
8,A42G G139A,1.28
9,A42U U108C,1.33
10,G44A U46A,0.79
11,A43U U100A,0.84
12,A43U U100C,1.75
13,A43C A79G,0.75
14,G44A U143C,1.48
15,A43G A77U,1.05
16,G41U C103A,1.11
17,A43U A50G,1.29
18,A42U A107U,0.92
19,A43U A79U,2.2
20,A43U A79G,0.97
21,A42G G135A,1.69
22,A42U U119A,0.98
23,A42U C56A,0.05
24,G40U A140U,1.79

row,Variant,self-cleavage
1,A42U A140G,1.29
2,A42U A140U,1.05
3,A42G A117G,1.71
4,A43G A50G,1.24
5,A43G A50C,1.73
6,A43G A138U,1.31
7,G41C U132A,1.35
8,A42G G93A,0.01
9,A42G G93U,0.05
10,A42G A59G,0.11
11,A42G U45C,1.2
12,A43U G58A,0.05
13,A42U A50G,0.92
14,A43G U47A,0.96
15,G41A U102A,1.05
16,G41A A94G,0.13
17,A42G C51A,2.3
18,A42G G88A,0.09
19,G44A A141G,1.42
20,A42G,1.38
21,A42C,0.92
22,A42U,0.98
23,A42U U104A,1.15
24,A43G U115G,1.02

row,Variant,self-cleavage
1,A43G U115C,1.52
2,A43G U115A,0.95
3,A42C A59G,0.45
4,A43U G60A,0.05
5,G44A U52C,1.32
6,G41A A140G,1.05
7,A43G A92G,0.22
8,A43G G114A,1.05
9,A43U U143C,0.51
10,A43G A117G,0.71
11,A43G A117U,1.93
12,A42C A43U,0.72
13,A42C A43G,1.13
14,A43U U115A,1.6
15,A43G U108A,0.71
16,A43G G89U,0.04
17,A42G U47C,1.54
18,A42G U47G,0.88
19,A43G A65C,0
20,A43G A65U,0.15
21,A43G A65G,0.09
22,A43G U62A,0.1
23,A43G U100A,0.89
24,A43C U87A,0.09

row,Variant,self-cleavage
1,A43G G58A,0.05
2,A43U A69U,0.05
3,A43U A64G,0.42
4,A43G U46A,1.17
5,A42C U134A,0.83
6,A43U C99U,0.2
7,A42G A142G,1.48
8,A43G A140G,1.35
9,A42G C101A,0.95
10,G41C U46A,0.25
11,G41U U45A,1.14
12,A43G G60A,0.04
13,G40U U102C,1
14,A42G A136U,1.4
15,A42G A136G,1.53
16,A43C U119C,1.62
17,A43G U96C,0.09
18,A42G G75A,1.14
19,A42G G89U,0.02
20,A42G G89C,0
21,A42G G89A,0.03
22,A43G G72U,1.32
23,A42U U46C,1.37
24,G41A U85C,0.05

row,Variant,self-cleavage
1,G41A U85A,0
2,G41A U85G,0.09
3,A43U G86U,0.08
4,A43U U96A,0.12
5,G44A U109C,1.09
6,A42U G82A,1.38
7,A42U U81A,1.39
8,A43G U52G,1.64
9,G41A A59G,0.07
10,A42G A64G,0.28
11,A43G C71U,0.15
12,A42G A121U,1.4
13,A42G A121G,1.59
14,A42G C71G,0.35
15,A42C G93A,0.03
16,A43U A59G,0.03
17,G41A U62C,0.08
18,A43U U119C,1.17
19,A42C A138G,1.05
20,A42U U52C,0.54
21,A42G U73C,1.5
22,A43U U46G,1.37
23,A43U U46C,1.23
24,A42G G127U,1.9

row,Variant,self-cleavage
1,A42G U115C,1.67
2,A43G A69G,0.58
3,A43G A69U,0.08
4,A42U U115A,1.39
5,A42U U115C,1.15
6,A42U U115G,1.04
7,A43G U104A,0.42
8,A42C G53A,1.22
9,A43G U143A,1.24
10,G41A U47A,1.77
11,A42U A78G,0.88
12,A42U A141G,0.9
13,A43G U87A,0.08
14,A43G U87G,0.16
15,G41A A69U,0.06
16,A42U U109C,0.71
17,A43U A94G,0.12
18,A42U U91C,0.27
19,A43C A92G,0.18
20,A42G C63U,0.4
21,G44A A138G,1.55
22,G41U U100C,1.28
23,A43U G44A,1.61
24,A42U U85C,0.13

row,Variant,self-cleavage
1,A43G G48A,1.54
2,A42U U96C,0.06
3,G41A U132C,1.25
4,G44A A50G,0.9
5,A42G G82A,1.95
6,A43U G54A,0.56
7,A43G U132C,1.1
8,A43G U132A,1.55
9,A42G U112C,1.54
10,A43G U102C,1.13
11,A43G U102A,0.91
12,A43G U102G,0.84
13,A43G A67G,0.46
14,A43G A67C,0.05
15,A43U U47C,2.03
16,A43U U47A,1.44
17,A42G U104C,1.81
18,A42G U104A,1.13
19,G41A,1.16
20,G41U,1.19
21,G41C,1.22
22,A43U A77G,2.1
23,A42U U87A,0.07
24,A42G G106U,1.1

row,Variant,self-cleavage
1,A43G U81G,1.12
2,A43G U81A,1.68
3,A42U C120U,0.4
4,A43G A64C,0.2
5,A42G A138C,0.41
6,A42U A65G,0.06
7,G40U A92G,0.02
8,A43U A117G,1.25
9,A43G A59G,0.14
10,A43C G105U,1.53
11,A42G A78U,1.66
12,A42G G83A,0.96
13,G41U A94G,0.05
14,A42G U134C,1.36
15,A43U A78G,0.61
16,A43U A78C,2.35
17,A43G G127U,1.87
18,A42U A138U,1.34
19,A42G A67U,0.17
20,A43C U112C,2.1
21,A43C,1.35
22,A43U,1.26
23,A43G,1.21
24,A43G C146A,1.09

row,Variant,self-cleavage
1,A42G G144A,1.17
2,G44A A79G,0.99
3,G44A A79U,1.89
4,G41A A136U,1.53
5,A43U C98G,0.06
6,A42G U46A,1.11
7,A42G U46G,1.02
8,A42G A124C,2.96
9,A42G A124G,0.87
10,G41A U119C,1.15
11,A42G U102C,1.36
12,A42U U45A,0.95
13,A42G G80C,0.62
14,A42G A129G,1.68
15,A42U A67G,0.21
16,A43U U52A,1.04
17,G41A G125A,1.46
18,G41U C145U,0.75
19,A42G A69U,0.04
20,A42G A69C,0.06
21,G44C U115A,1.77
22,A42G C145G,1.14
23,A43C U109C,0.26
24,A43G G83A,1.03

row,Variant,self-cleavage
1,A42C A94G,0.28
2,A43G A129G,1.48
3,A43G A129U,0.95
4,A43C U45G,0.66
5,A43C U45C,0.51
6,A42G A65U,0.32
7,A43G A121G,1.12
8,A43G A121U,1.23
9,G41A A141G,0.96
10,A42G C99U,1.11
11,G44A C113U,1.8
12,A43G C95U,0.16
13,A43U G105A,1.21
14,A42G G44A,1.27
15,A43G U130A,1.51
16,A43G U130C,1.2
17,A43G A78C,1.74
18,A42U A142U,0.57
19,A43G A79C,2.63
20,A42G U96G,0
21,A42G U96C,0.12
22,A42G A107G,1.7
23,G41U U62A,0.04
24,G41U U62C,0.04

row,Variant,self-cleavage
1,G40U A124G,0.87
2,A43U A141G,1.38
3,G41U A140G,1.14
4,A42U U47C,1.7
5,G40U U85C,0.13
6,G41A A65G,0.03
7,A42C A124G,0.79
8,G44C A141G,1.03
9,A43U U85C,0.16
10,A43C U108C,1.78
11,A43C U100C,1.99
12,G41A A57U,0.11
13,A42U U132C,1.01
14,A43G A141G,1.29
15,A43G A141U,1.61
16,A42G U85A,0.15
17,A42G C66U,0.01
18,A42U A92G,0.09
19,G41C U115A,1.88
20,G44A U134C,0.92
21,A42G G122A,0.92
22,A42G A43G,1.17

# — the RNAGym collection of RNA variant scans (doi:10.7554/elife.90254)
